This is an account of results in article PMC7888582 (Protein Science : A Publication of the Protein Society, 2021).

Holding throughout (assay): SEC
On the technique in general: SEC sorts molecules by how far they enter the pores of the column.

Data set [1] addresses mtGGGPS_W141A (Methanothermobacter thermautotrophicus).
Data set [2] addresses GGGPS of Nitrososphaera viennensis (nvGGGPS) (Nitrososphaera viennensis).
The target in data set [3] is mtGGGPS_W141H (Methanothermobacter thermautotrophicus).
Data set [4] concerns the molecule itself.

mtGGGPS_W141A (enzyme) showed a stoichiometry N in data set [1] of 2.
For the molecule “GGGPS of Nitrososphaera viennensis (nvGGGPS) (enzyme)”, the stoichiometry N in data set [2] is 6.
With mtGGGPS_W141H (enzyme), the stoichiometry N in data set [3] is 6.

B1: wild-type Methanothermobacter thermautotrophicus GGGPS (mtGGGPS) (enzyme)
chain: MKVEDYFHDILRERKIHLTLIDPEEQTPEEAVEIARAAIRGGTDGIMLGGSTTDSSELDNTARALRENIDVPIILFPGNTTGVSRYADAIFFMSLLNSTNPYWIIGAQALGAATVKKMGIEALPMGYLVVEPGGTVGWVGDTKPVPRNKPDIAAAYAMAAEFLGMRLFYLEAGSGAPEHVPEEMIALVKRCTDQILIVGGGIRSGEDAARVAGAGADVVVTGTVVENSDNVEDKIREIVEGMGSV
On to B1, for which the “stoichiometry N” value in data set [4] was 6.

What is called stoichiometry N is a count of units in the complex or per binding partner.
